Source: article PMC5295774, “Stabilization of Nucleosomes by Histone Tails and by FACT Revealed by spFRET Microscopy” (Cancers, 2017)

Target: T1, His-MBP-tagged SSRP1 (1–709) (human, UniProt Q08945 1-709)
T1 construct: SSRP1 subunit of human FACT, residues 1-709; The tag was still on SSRP1 when the complex with Spt16 was purified on Nickel-NTA; it was cut afterwards; also called structure-specific recognition protein 1; source: E. coli BL21(DE3), purified (Nickel-NTA)
Assay: pull-down; purified Spt16 and His-MBP-tagged SSRP1 mixed at a 1:1 molar ratio, complex purified on Nickel-NTA by the tag of SSRP1; after TEV cleavage again Nickel-NTA and Superdex 200 SEC; 50 mM NaH2PO4-Na2HPO4, 300 mM NaCl, pH 7.5
Conditions: both partners purified

T1 sequence (Q08945 whole entry, the tested form may be a part): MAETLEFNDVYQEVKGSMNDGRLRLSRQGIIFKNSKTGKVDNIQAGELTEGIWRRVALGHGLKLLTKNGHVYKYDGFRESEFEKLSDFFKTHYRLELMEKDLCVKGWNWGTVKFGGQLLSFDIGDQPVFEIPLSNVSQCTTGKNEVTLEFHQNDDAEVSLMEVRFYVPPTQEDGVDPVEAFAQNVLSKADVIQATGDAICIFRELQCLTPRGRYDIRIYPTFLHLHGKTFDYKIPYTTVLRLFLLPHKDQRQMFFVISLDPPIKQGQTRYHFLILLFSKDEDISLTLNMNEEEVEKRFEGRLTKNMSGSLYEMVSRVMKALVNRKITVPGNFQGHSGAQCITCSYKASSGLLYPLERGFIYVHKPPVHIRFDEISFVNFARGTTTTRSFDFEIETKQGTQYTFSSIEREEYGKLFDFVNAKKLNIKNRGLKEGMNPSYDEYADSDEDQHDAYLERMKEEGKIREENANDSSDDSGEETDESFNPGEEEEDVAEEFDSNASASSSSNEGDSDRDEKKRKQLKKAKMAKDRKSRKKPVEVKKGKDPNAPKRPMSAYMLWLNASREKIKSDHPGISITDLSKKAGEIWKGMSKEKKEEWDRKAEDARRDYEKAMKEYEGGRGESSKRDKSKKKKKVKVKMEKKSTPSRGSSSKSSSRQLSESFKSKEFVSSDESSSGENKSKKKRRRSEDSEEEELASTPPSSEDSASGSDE

B1: Spt16 (501–1006) (domain or fragment, human, UniProt Q9Y5B9 501-1006, looked up)
chain: QIQKARKSNVSYKNPSLMPKEPHIREMKIYIDKKYETVIMPVFGIATPFHIATIKNISMSVEGDYTYLRINFYCPGSALGRNEGNIFPNPEATFVKEITYRASNIKAPGEQTVPALNLQNAFRIIKEVQKRYKTREAEEKEKEGIVKQDSLVINLNRSNPKLKDLYIRPNIAQKRMQGSLEAHVNGFRFTSVRGDKVDILYNNIKHALFQPCDGEMIIVLHFHLKNAIMFGKKRHTDVQFYTEVGEITTDLGKHQHMHDRDDLYAEQMEREMRHKLKTAFKNFIEKVEALTKEELEFEVPFRDLGFNGAPYRSTCLLQPTSSALVNATEWPPFVVTLDEVELIHFERVQFHLKNFDMVIVYKDYSKKVTMINAIPVASLDPIKEWLNSCDLKYTEGVQSLNWTKIMKTIVDDPEGFFEQGGWSFLEPEGEGSDAEEGDSESEIEDETFNPSEDDYEEEEEDSDEDYSSEAEESDYSKESLGSEEESGKDWDELEEEARKADRESRY
notes: Spt16 subunit of human FACT, residues 501-1006 (without the N-terminal domain); His-MBP tag cut with TEV protease and removed by SEC before mixing with SSRP1; also called suppressor of Ty 16; Spt16 without the NTD; source: E. coli BL21(DE3), purified (Nickel-NTA, TEV cleavage, Superdex 200 SEC)
B1: binds.
